This is an account of results in patent US20110280881A1 (RIKEN, published 2011).

Assay [1] concerns the target T1, mouse HSP90α (NP-034610) (mouse, UniProt P07901 2-733).
T1 construct: whole, on cells; also called cell surface HSP90α
Briefly: antibody bound to living DC2.4 cells, lysis, Protein G-Sepharose, blot. On the procedure:
(§1) Mammalian HSP90 occurs in two isoforms: HSP90α and β. The following experiment was performed to determine whether not only HSP90α but also HSP90β is recognized by the antibody of the present invention. […] After being thoroughly washed to remove the unreacted antibody, the cells were lysed; the lysate was centrifuged at 10,000×g, and the resulting supernatant was incubated along with Protein G-Sepharose. The bound material was subjected to SDS-PAGE, after which blotting was performed using an anti-HSP90α antibody (SPS-771, Assay designs), an anti-HSP90β antibody (PB-118-P1, Neomarkers), or an antibody that recognizes both HSP90α and β (6B1C4, another antibody obtained in Example 1).

Assay [2] concerns the target T2, mouse HSP90β (NP-032328) (mouse, UniProt P11499 2-724).
T2 construct: whole, on cells; also called cell surface HSP90β
Described as above. The method, then: as §1

T2 sequence (P11499 2-724): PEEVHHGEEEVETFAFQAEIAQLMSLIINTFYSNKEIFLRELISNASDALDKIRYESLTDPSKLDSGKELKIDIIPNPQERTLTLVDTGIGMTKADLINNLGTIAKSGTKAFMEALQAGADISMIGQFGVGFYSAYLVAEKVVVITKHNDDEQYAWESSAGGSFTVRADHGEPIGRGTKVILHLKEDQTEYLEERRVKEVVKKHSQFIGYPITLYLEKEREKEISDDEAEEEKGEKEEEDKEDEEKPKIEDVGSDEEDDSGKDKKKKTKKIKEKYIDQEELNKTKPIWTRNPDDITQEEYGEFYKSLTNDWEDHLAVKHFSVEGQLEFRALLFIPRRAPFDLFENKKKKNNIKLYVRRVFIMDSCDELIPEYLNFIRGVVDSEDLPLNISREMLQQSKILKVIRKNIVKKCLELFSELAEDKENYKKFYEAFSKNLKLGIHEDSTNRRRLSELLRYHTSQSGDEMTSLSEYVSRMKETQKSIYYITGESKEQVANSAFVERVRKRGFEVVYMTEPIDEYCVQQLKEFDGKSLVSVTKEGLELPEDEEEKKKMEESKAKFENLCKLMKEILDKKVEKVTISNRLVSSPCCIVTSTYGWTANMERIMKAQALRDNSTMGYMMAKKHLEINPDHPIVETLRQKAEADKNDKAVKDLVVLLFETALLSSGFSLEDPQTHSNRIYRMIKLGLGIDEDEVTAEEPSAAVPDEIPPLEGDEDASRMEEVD

B1: 6H8D2 anti-HSP90 monoclonal antibody (hybridoma FERM BP-11222) (antibody, V domains shown)
VH: QVQLQQSGPELVKPGASVRISCKASGYTFTSYYIHWVKQRPGQGLEWIGWIYPGNVNTKYNEKFKGKATLTADKSSSTAYMQLSSLTSEDSAVYFCARYGNYPFAYWGQGTLVTVSA
VL: DVVMTQTPLSLPVSLGDQASISCRSSQSLVHSNGNTYLHWYLQKPGQSPKLLIYKVSNRFSGVPDRFSGSGSGTDFTLKISRVEAEDLGVYFCSQSTHVPPTFGGGTKLEIKR
notes: Mouse monoclonal IgG from a hybridoma; Normal mouse IgG2a served as its control; It was biotinylated for FACS; also called 6H8 antibody; 6H8 mAb
For the molecule B1, the binding result in assay [1] and in assay [2] was “binds” in each case.
